We go through six molecules from patent US20200392236A1 (JUNO THERAPEUTICS, published 2020).

The target of experiment [1] is T1, human BCMA amino acid residues 1-54 (linear and conformational CLIPS peptide libraries) (human, UniProt Q02223 1-54).
T1 sequence: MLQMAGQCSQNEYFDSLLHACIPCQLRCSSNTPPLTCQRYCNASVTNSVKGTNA
Briefly: CLIPS peptide array ELISA. The method, then: (§1) Epitopes recognized, e.g., specifically bound to, by exemplary anti-BCMA scFv clones (BCMA-1, BCMA-5, BCMA-9, BCMA-23, BCMA-25, BCMA-26, BCMA-52 and BCMA-55 anti-BCMA scFvs), were assessed using full discontinuous epitope mapping by Chemical Linkage of Peptides onto Scaffolds (CLIPS; Pepscan Presto BV, Lelystad, The Netherlands; see, e.g., Timmerman et al., (2007) J. Mol. Recognit. 20: 283-329). Mapping was carried out using anti-BCMA scFv clones, such as those fused with mouse Fc (scFv-mFc).
(§2) Linear and conformational peptide libraries of amino acid residues 1-54 of human BCMA (set forth as amino acid residues 1-54 of SEQ ID NO:367) were generated based on a combinatorial matrix design. Linear peptides and structural mimetics including single loop, α-helix, β-turn, combinatorial and linear disulfide bridge mimics, and discontinuous epitope mimics were used, along with positive and negative control peptides, on an amino-functionalized solid support.
(§3) Affinities for binding to the peptides in the epitope library were determined using ELISA. The peptide arrays were incubated with a solution containing the scFv overnight at 4° C. Affinity information was used in iterative screens to define the sequence and conformation of epitopes. Heat maps of affinity information for two or more loops were generated.
Background: In an ELISA, binding on a coated surface is turned into a signal by an enzyme label.

Experiment [2] concerns the target T2, human BCMA (B-cell maturation antigen) on cells (human, UniProt Q02223 1-184).
T2 construct: whole, on cells; also called hBCMA; hBCMA/HEK293 cell line
T2 sequence (looked up): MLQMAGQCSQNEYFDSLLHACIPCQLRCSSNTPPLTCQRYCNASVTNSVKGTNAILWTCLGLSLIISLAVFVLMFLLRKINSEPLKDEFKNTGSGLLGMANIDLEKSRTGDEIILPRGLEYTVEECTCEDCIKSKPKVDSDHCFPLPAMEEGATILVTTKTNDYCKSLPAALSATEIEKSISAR
As to the kind of experiment: flow cytometry on hBCMA-expressing HEK293 cells. (In general: A flow cytometer gives signals particle by particle.)

Experiment [3] has as its target T2, human BCMA (B-cell maturation antigen) …. As to the kind of experiment: flow cytometry, hBCMA-overexpressing HEK293 compared with OPM2 and RPMI-8226 cells. How it is done: Binding of exemplary scFv clones to hBMCA-overexpressing HEK293 cells as compared to OPM2 and RPMI-8226 cell lines that express moderate levels of endogenous BCMA was assessed.
For experiment [4], the target named is T3, BCMA peptide 30SNTPPLTCQR39 (human).
T3 construct: Peptide of the CLIPS library; recognised in a linear form
T3 peptide: SNTPPLTCQR
As to the kind of experiment: CLIPS peptide array ELISA. The method, then:
as §1, §2, §3

B1: BCMA-52-scFv-mFc (Fc fusion)
chain: SYELTQPPSASGTPGQRVTMSCSGTSSNIGSHSVNWYQQLPGTAPKLLIYTNNQRPSGVPDRFSGSKSGTSASLAISGLQSEDEADYYCAAWDGSLNGLVFGGGTKLTVLGSRGGGGSGGGGSGGGGSLEMAEVQLVQSGAEVKKPGESLKISCKGSGYSFTSYWIGWVRQMPGKGLEWMGIIYPGDSDTRYSPSFQGHVTISADKSISTAYLQWSSLKASDTAMYYCARYSGSFDNWGQGTLVTVSS
notes: scFv fused with mouse Fc; The order scFv then Fc follows the label; also called BCMA-52 anti-BCMA scFv; not shown: mouse Fc (mFc)
Turning to B1, in experiment [1], the binding result is listed as “binds”.

B2: BCMA-55-scFv-mFc (Fc fusion)
chain: QSALTQPASVSASPGQSIAISCTGTSSDVGWYQQHPGKAPKLMIYEDSKRPSGVSNRFSGSKSGNTASLTISGLQAEDEADYYCSSNTRSSTLVFGGGTKLTVLGSRGGGGSGGGGSGGGGSLEMAEVQLVQSGAEMKKPGASLKLSCKASGYTFIDYYVYWMRQAPGQGLESMGWINPNSGGTNYAQKFQGRVTMTRDTSISTAYMELSRLRSDDTAMYYCARSQRDGYMDYWGQGTLVTVSS
notes: scFv fused with mouse Fc; The order scFv then Fc follows the label; also called BCMA-55 anti-BCMA scFv; not shown: mouse Fc (mFc)
For the molecule B2, in experiment [1], the binding result is listed as “binds”.

B3: BCMA-16 anti-BCMA scFv (scFv)
scFv: EVQLVQSGPEVKKPGTSVKVSCKASGFTFTSSAMQWVRQARGQRLEWIGWIVVGSGNTNYAQKFQERVTITRDMSTSTAYMELSSLRSEDTAVYYCAAAPYYDILTGYYLWGQGTLVTVSSGGGGSGGGGSGGGGSQSALTQPPSASGTPGQRVTISCSGSGSNIGSNDVSWYQQIPGTAPKLLIYWNDQRPSGVPDRFSGSKSGTSASLAISGLQSEDEADYYCASWDDSLSGWVFGGGTKLTVL
notes: VH-(G4S)3-VL scFv
In the case of B3, the binding result in experiment [2] is on record as “no binding”.

B4: BCMA-26 anti-BCMA scFv (scFv)
scFv: EVQLVESGGGLVKPGGSLRLSCAASGFTFSDYYMSWIRQAPGKGLEWVSYISSSGSTIYYADSVKGRFTISRDNAKNSLYLQMNSLRAEDTAVYYCAKVDGPPSFDIWGQGTMVTVSSGGGGSGGGGSGGGGSSYVLTQPPSVSVAPGQTARITCGANNIGSKSVHWYQQKPGQAPMLVVYDDDDRPSGIPERFSGSNSGNTATLTISGVEAGDEADYFCHLWDRSRDHYVFGTGTKLTVL
notes: VH-(G4S)3-VL scFv
For the molecule B4, the binding result in experiment [1] is “binds”.

B5: BCMA-1 anti-BCMA scFv (scFv)
scFv: QVQLVQSGGGLVQPGRSLRLSCTASGFTFGDYAMSWFRQAPGKGLEWVGFIRSKAYGGTTEYAASVKGRFTISRDDSKSIAYLQMNSLKTEDTAVYYCAAWSAPTDYWGQGTLVTVSSGGGGSGGGGSGGGGSDIVMTQSPDSLSVSPGERATISCKSSQSVLSTSNNKNYLAWYQQKPGQPPRLLLYWASTREAGVPDRFSGSGSGTDFTLTISSLQAEDVAVYYCQQYFSSPYTFGHGTKLEIK
notes: VH-(G4S)3-VL scFv
With B5, the binding result in experiment [3] and in experiment [4] was “binds” in each case.

B6: BCMA-5 anti-BCMA scFv (scFv)
scFv: QVQLVQSGGGLVQPGRSLRLSCTASGFTFGDYAMSWFRQAPGKGLEWVGFIRSKAYGGTTEYAASVKGRFTISRDDSKSIAYLQMNSLKTEDTAVYYCAAWSAPTDYWGQGTLVTVSSGGGGSGGGGSGGGGSDIVMTQSPDSLAVSLGERATINCKSSQSVLYSSNNKNYLAWYQQKPGQPPKLLIYWASTRESGVPDRFSGSGSGTDFTLTISSLQAEDVAVYYCQQYYSTPWTFGQGTKVDIK
notes: VH-(G4S)3-VL scFv
Consider B6, for which the binding result in experiment [3] and in experiment [4] was “binds” each time.
